From paper PMC5118228 (EJNMMI Research, 2016)

Columns and labels:
[1] = system: tumor and normal organs of mice; test: Radiation dosimetry (MIRD schema, Olinda/EXM spherical S-factors); type: in vivo; conditions: tumor-bearing mice, calculated
Procedure: Saturation of receptor-specific tumor uptake was investigated by determining the kinetics of the tumor uptake with increasing injected mass of peptide. The time-activity curves for the tumor and normal organs were fitted by single-exponential functions using Prism-5 (GraphPad). Goodness of fit was analyzed with the Pearson correlation coefficient R ^2 > 0.8. Both F test and the Aikake information criterion were used to decide on the complexity of the curves.
Dosimetry was performed according to the MIRD schema by using the spherical nodes S-factors from the Olinda/EXM software. S-factors were interpolated from the actual weight of the organs and tissue. All organs and tissue were assumed to be spherical with a density of […]. Mean radiation absorbed doses were obtained as a function-injected mass of peptide, assuming a homogeneous distribution in the tumor and organs. […] Owing to the short path length of α-particles, only the self-dose within each organ was included. The threshold for lethality was determined with renal absorbed dose and injected activity as indicators. Logistic regression analysis was used to determine the LD50 for presumed renal toxicity-related death.

in vivo = conditions: male, athymic nu/nu, mouse, iv, 0.3 nmol, total radioactivity

SMILES: C[C@@H](O)[C@H](NC(=O)[C@@H]1CSSC[C@H](NC(=O)[C@@H](Cc2ccccc2)NC(=O)CN2CCN(CC(=O)O)CCN(CC(=O)O)CCN(CC(=O)O)CC2)C(=O)N[C@@H](Cc2ccc(O)cc2)C(=O)N[C@H](Cc2c[nH]c3ccccc23)C(=O)N[C@@H](CCCCN)C(=O)N[C@@H]([C@@H](C)O)C(=O)N1)C(=O)O [^213Bi-DOTATATE, metal not drawn]
- Radiation absorbed dose per administered activity, Stomach, ^213Bi β ([1]; with L-lysine (35 mg)): 2.60E-03 Gy/MBq
- Radiation absorbed dose per administered activity, Stomach, ^213Po α ([1]; with L-lysine (35 mg)): 6.00E-02 Gy/MBq
- Radiation absorbed dose per administered activity, Tumor, Total α ([1]; with L-lysine (35 mg)): 6.14E-01 Gy/MBq
- Radiation absorbed dose per administered activity, Tumor, Total β ([1]; with L-lysine (35 mg)): 4.40E-02 Gy/MBq
- Radiation absorbed dose per administered activity, Tumor, ^209Pb β ([1]; with L-lysine (35 mg)): 1.41E-02 Gy/MBq
- Radiation absorbed dose per administered activity, Tumor, ^209Tl β + γ ([1]; with L-lysine (35 mg)): 8.60E-04 Gy/MBq
- Radiation absorbed dose per administered activity, Tumor, ^213Bi α ([1]; with L-lysine (35 mg)): 9.20E-03 Gy/MBq
- Radiation absorbed dose per administered activity, Tumor, ^213Bi β ([1]; with L-lysine (35 mg)): 2.87E-02 Gy/MBq
- Radiation absorbed dose per administered activity, Tumor, ^213Po α ([1]; with L-lysine (35 mg)): 6.05E-01 Gy/MBq
- Radiation absorbed dose per administered activity, Adrenals, Total α ([1]; without L-lysine): 3.60E-02 Gy/MBq
- Radiation absorbed dose per administered activity, Adrenals, Total β ([1]; without L-lysine): 2.00E-03 Gy/MBq
- Radiation absorbed dose per administered activity, Adrenals, ^209Pb β ([1]; without L-lysine): 2.00E-04 Gy/MBq
- Radiation absorbed dose per administered activity, Adrenals, ^209Tl β + γ ([1]; without L-lysine): 2.00E-05 Gy/MBq
- Radiation absorbed dose per administered activity, Adrenals, ^213Bi α ([1]; without L-lysine): 5.00E-04 Gy/MBq
- Radiation absorbed dose per administered activity, Adrenals, ^213Bi β ([1]; without L-lysine): 1.50E-03 Gy/MBq
- Radiation absorbed dose per administered activity, Adrenals, ^213Po α ([1]; without L-lysine): 3.56E-02 Gy/MBq
- Radiation absorbed dose per administered activity, Blood, Total α ([1]; without L-lysine): 9.00E-02 Gy/MBq
- Radiation absorbed dose per administered activity, Blood, Total β ([1]; without L-lysine): 5.00E-03 Gy/MBq
- Radiation absorbed dose per administered activity, Blood, ^209Pb β ([1]; without L-lysine): 1.60E-04 Gy/MBq
- Radiation absorbed dose per administered activity, Blood, ^209Tl β + γ ([1]; without L-lysine): 1.20E-04 Gy/MBq
- Radiation absorbed dose per administered activity, Blood, ^213Bi α ([1]; without L-lysine): 1.30E-03 Gy/MBq
- Radiation absorbed dose per administered activity, Blood, ^213Bi β ([1]; without L-lysine): 4.30E-03 Gy/MBq
- Radiation absorbed dose per administered activity, Blood, ^213Po α ([1]; without L-lysine): 8.80E-02 Gy/MBq
- Radiation absorbed dose per administered activity, Femur, Total α ([1]; without L-lysine): 3.20E-02 Gy/MBq
- Radiation absorbed dose per administered activity, Femur, Total β ([1]; without L-lysine): 1.00E-03 Gy/MBq
- Radiation absorbed dose per administered activity, Femur, ^209Pb β ([1]; without L-lysine): 1.00E-04 Gy/MBq
- Radiation absorbed dose per administered activity, Femur, ^209Tl β + γ ([1]; without L-lysine): 3.00E-05 Gy/MBq
- Radiation absorbed dose per administered activity, Femur, ^213Bi α ([1]; without L-lysine): 5.00E-04 Gy/MBq
- Radiation absorbed dose per administered activity, Femur, ^213Bi β ([1]; without L-lysine): 1.30E-03 Gy/MBq
- Radiation absorbed dose per administered activity, Femur, ^213Po α ([1]; without L-lysine): 3.16E-02 Gy/MBq
- Radiation absorbed dose per administered activity, Kidney, Total α ([1]; without L-lysine): 1.07E+00 Gy/MBq
- Radiation absorbed dose per administered activity, Kidney, Total β ([1]; without L-lysine): 5.50E-02 Gy/MBq
- Radiation absorbed dose per administered activity, Kidney, ^209Pb β ([1]; without L-lysine): 6.20E-03 Gy/MBq
- Radiation absorbed dose per administered activity, Kidney, ^209Tl β + γ ([1]; without L-lysine): 1.30E-03 Gy/MBq
- Radiation absorbed dose per administered activity, Kidney, ^213Bi α ([1]; without L-lysine): 1.61E-02 Gy/MBq
- Radiation absorbed dose per administered activity, Kidney, ^213Bi β ([1]; without L-lysine): 4.71E-02 Gy/MBq
- Radiation absorbed dose per administered activity, Pancreas, Total α ([1]; without L-lysine): 1.34E-01 Gy/MBq
- Radiation absorbed dose per administered activity, Pancreas, Total β ([1]; without L-lysine): 5.00E-03 Gy/MBq
- Radiation absorbed dose per administered activity, Pancreas, ^209Pb β ([1]; without L-lysine): 7.00E-04 Gy/MBq
- Radiation absorbed dose per administered activity, Pancreas, ^209Tl β + γ ([1]; without L-lysine): 1.00E-04 Gy/MBq
- Radiation absorbed dose per administered activity, Pancreas, ^213Bi α ([1]; without L-lysine): 2.00E-03 Gy/MBq
- Radiation absorbed dose per administered activity, Pancreas, ^213Bi β ([1]; without L-lysine): 4.50E-03 Gy/MBq
- Radiation absorbed dose per administered activity, Pancreas, ^213Po α ([1]; without L-lysine): 1.32E-01 Gy/MBq
- Radiation absorbed dose per administered activity, Stomach, Total α ([1]; without L-lysine): 9.00E-02 Gy/MBq
- Radiation absorbed dose per administered activity, Stomach, Total β ([1]; without L-lysine): 5.00E-03 Gy/MBq
- Radiation absorbed dose per administered activity, Stomach, ^209Pb β ([1]; without L-lysine): 5.90E-04 Gy/MBq
- Radiation absorbed dose per administered activity, Stomach, ^209Tl β + γ ([1]; without L-lysine): 1.10E-04 Gy/MBq
- Radiation absorbed dose per administered activity, Stomach, ^213Bi α ([1]; without L-lysine): 1.30E-03 Gy/MBq
- Radiation absorbed dose per administered activity, Stomach, ^213Bi β ([1]; without L-lysine): 3.90E-03 Gy/MBq
- Radiation absorbed dose per administered activity, Stomach, ^213Po α ([1]; without L-lysine): 8.84E-02 Gy/MBq
- Radiation absorbed dose per administered activity, Tumor, Total α ([1]; without L-lysine): 6.61E-01 Gy/MBq
- Radiation absorbed dose per administered activity, Tumor, Total β ([1]; without L-lysine): 4.80E-02 Gy/MBq
- Radiation absorbed dose per administered activity, Tumor, ^209Pb β ([1]; without L-lysine): 1.58E-02 Gy/MBq
- Radiation absorbed dose per administered activity, Tumor, ^209Tl β + γ ([1]; without L-lysine): 9.60E-04 Gy/MBq
- Radiation absorbed dose per administered activity, Tumor, ^213Bi α ([1]; without L-lysine): 9.90E-03 Gy/MBq
- Radiation absorbed dose per administered activity, Tumor, ^213Bi β ([1]; without L-lysine): 3.14E-02 Gy/MBq
- Radiation absorbed dose per administered activity, Tumor, ^213Po α ([1]; without L-lysine): 6.51E-01 Gy/MBq
- tissue uptake at 1 h (in vivo; Renal activity): 17.4 ± 2.2 %ID/g
- tissue uptake at 10 min (in vivo; Tumor uptake): 5.3 ± 2.8 %ID/g
- tissue uptake at 1 h (in vivo; Tumor uptake): 6.5 ± 2.3 %ID/g
